Design: species or system Rats
Details: rat, in vivo, 1 mg/kg
Method: Rats were administered the dosing composition by intracolonic instillation.

interferon
Mean peak serum interferon concentration: 79±100

— US6313088A, “8-[(2-hydroxy-4-methoxy benzoyl) amino]-octanoic acid compositions for delivering active agents” (Emisphere Technologies, Inc., priority 1997, dated 2001)
